From the Immune Epitope Database (IEDB)
pKd: −log10 of the molar value.

Key:
HLA-A*02:07 = assay: IEDB peptide-MHC binding, purified MHC/competitive/radioactivity; filed as Kd, often an IC50 or EC50 that approximates it; ≥ and ≤ were set here for values at or beyond the usual limits of such assays
HLA-A*02:01 = assay: as above
[1] = source organism: Hepatitis B virus adr4
[2] = source organism: Hepatitis B virus
[3] = source organism: Mycobacterium tuberculosis

Row | pKd (HLA-A*02:07; source organism: Homo sapiens) | pKd (HLA-A*02:01; source organism: Homo sapiens) | Sequence | also measured
1 | 5.98 | – | YLQLVFGIEV | –
2 | 5.81 | 5.79 | SLDLASLIL | –
3 | 5.18 | ≤ 4.52 | AAPLILSRI | –
4 | 5.22 | 7.02 | ALDVYNGLL | –
5 | ≤ 4.63 | – | ALAETSYVKV | –
6 | ≤ 4.52 | ≤ 4.52 | LTDAVKVMDL | –
7 | 5.19 | 7.17 | CILESLFRA | –
8 | ≤ 4.52 | ≤ 4.52 | QIPSYKKLI | –
9 | ≤ 4.52 | ≤ 4.52 | TLPSWATEDT | –
10 | ≤ 4.52 | ≤ 4.52 | NLDRSNDKV | –
11 | ≤ 4.52 | – | LLFFWLDRSV | –
12 | 5.85 | – | GMPEGDLVYV | –
13 | 6.26 | – | RMPEAAPPV | –

The next lines start with the sequence.

Row | Sequence | pKd (HLA-A*02:07; source organism: Homo sapiens) | pKd (HLA-A*02:01; source organism: Homo sapiens) | also measured
14 | KLPQLCTEL | – | – | pKd (HLA-A*02:07; source organism: Human papillomavirus 16): 5.58
15 | LVPFVQWFV | – | – | pKd (HLA-A*02:07; [1]): 5.60
16 | YTAFTIPSI | – | – | pKd (HLA-A*02:07; source organism: HIV-1 M:B_MN): ≤ 4.52
17 | LLWKGEGAVV | – | – | pKd (HLA-A*02:07; source organism: HIV-1 M:B_MN): 5.38; pKd (HLA-A*02:01; source organism: HIV-1 M:B_MN): 6.95
18 | WVDLRSLFL | – | – | pKd (HLA-A*02:07; source organism: HIV-1 M:B_MN): ≤ 4.57; pKd (HLA-A*02:01; source organism: HIV-1 M:B_MN): 4.78
19 | ILKEPVHGV | – | – | pKd (HLA-A*02:07; source organism: HIV-1 M:B_MN): ≤ 4.52
20 | LLPFVQWFV | – | – | pKd (HLA-A*02:07; [2]): 7.06; pKd (HLA-A*02:01; [2]): 8.07
21 | RLPLVLPAV | – | – | pKd (HLA-A*02:07; [3]): 8.05; pKd (HLA-A*02:01; [3]): 8.28
22 | YMDDVVLGV | – | – | pKd (HLA-A*02:07; [2]): 7.04
23 | SLDSWWTSV | – | – | pKd (HLA-A*02:07; [2]): 6.63; pKd (HLA-A*02:01; [2]): 7.30
24 | YLDLALMSV | – | – | pKd (HLA-A*02:07; [3]): 7.36; pKd (HLA-A*02:01; [3]): 8.25
25 | QLDPARDVL | – | – | pKd (HLA-A*02:07; [1]): ≤ 4.52
